Target: T1, human ILT3 on the cell surface (recombinant human ILT3 exogenously overexpressed on HEK cells); ILT3 on THP-1 … (human, UniProt Q8NHJ6 22-448)
T1 construct: whole, on cells; also called membranal ILT3; hILT3
Test: flow cytometry on HEK cells overexpressing recombinant human ILT3

Row | Binder | binding result
1 | 7A5 (antibody, V domains shown, Hybridoma (mouse) antibody) VH: EVKLVESGGGLVKPGGSLKLSCAASGFTFSSYAMSWVRQTPAKRLEWVATISSDGGNTYYTDSVKGRFTISRDNARNTLDLQMSSLRSEDTAMYYCARHDGRGALDYWGQGTSVTVSS VL: DIQMTQTTSSLSASLGDRVTISCRASQDISNYLNWYQQKPDGTVKLLIYYTSRLHSGVPSRFSGSGSGTDYSLTISNLEQEDIATYFCQQGNTLPWTFGGGTKLEIK | binds
2 | 3F6 (antibody, V domains shown, Hybridoma (mouse) antibody) VH: EVKLVESGGGLVKPGGSLKLSCAASGFTFSSYAMSWVRQTPAKRLEWVAAITFGGGNTYYPDSVKGRFTISRDNARNTLYLQMSSLRSEDTAMYYCARHGDGNYDFYAMDYWGQGTSVTVSS VL: DIVMTQSPSSLTVTAGEKVTMSCKSSQSLLNSGNQKNYLTWYQQKPGQPPKLLIYWASTRESGVPDRFTGSGSRTDFTLTISRVQAEDLAVYYCQNDYSYPLTFGAGTKLELK | binds
